This data set in a line: soluble on expression in E. coli; label from the status in PepcDB or PDB records.
With “MGSDKIHHHHHHMTQNTTLRIGSGSGWWGDRVEPAERSARLGKLDYLCFETMAEATVSAAQVRKRRDPAFGGYDTYLDDRMRAVLPHCIAHGTRIISNQGWIHPLGAARRVAELCKELGLPDVKIAAVTTTDLTSSICELDLTLLESGEHVSTLRETLISAEPYEGVGPIVEALRAGAQIVVTGRVADPSLFLAPMIHHFGWQADDVARLARGSAIGHLLECGAQVTGGYFGDPGYKDVPEPWNLAFPIAEVEADGSAVISKVAGSGGRIDLQTVKEQMFYEVHDPRRYITPDVIVDFSTAVLEQVAPDRVRISGVSGLPRTDTLKVSLGCTEGHIGEDMFFYAGPGCLEKAKLAKRILEERFAMAALRADELRIDFLGVNAVHGAASPEPACEPNEIAVRVAARTRTREEAAKVGREIDSMAVCGLASTGKRVPHQDRTREIIGVWSALVPRALIRSQVQFV”, the “soluble on expression in E. coli” value is “not soluble”.
Next, “MGSDKIHHHHHHMNIRSRTNNADDLAWVHLIERRKQVELWQFSCLRQSYTLELSPNVMEGVKPEGQLVMVQWSPSNDLQRVKVTLNIHEVTDQAAVNHHFKLVPAGCESIIIDIWGILGLIHDEALRRFYLAVLLNNELMGQFFNARASRSHHHNHACGLLEHSHEVAVTAAMLCWRYNVGPLSVGVAFIGGLLHDIGKIHLFYNADTRDGIAGSHESYNFMVLAEPLELLYRSSPKVFEALSSCLSVKIGRRSEAYIPASMVRLCDNLSMEVCHWRTAFADVPPHHWYAHSAMNDQWYKRLG”: “not soluble”; “MKSALSDLAFFGGPAAFDQPLLVGRPNRIDRARLYERLDRALDSQWLSNGGPLVREFEERVAGLAGVRHAVATCNATAGLQLLAHAAGLTGEVIMPSMTFAATPHALRWIGLTPVFADIDPDTGNLDPDQVAAAVTPRTSAVVGVHLWGRPCAADQLRKVADEHGLRLYFDAAHALGCAVDGRPAGSLGDAEVFSFHATKAVNAFEGGAVVTDDADLAARIRALHNFGFDLPGGSPAGGTNAKMSEAAAAMGLTSLDAFPEVIDRNRRNHAAYREHLADLPGVLVADHDRHGLNNHQYVIVEIDEATTGIHRDLVMEVLKAEGVHTRAYFSPGCHELEPYRGQPHAPLPHTERLAARVLSLPTGTAIGDDDIRRVADLLRLCATRGRELTARHRDTAPAPLAAPQTSTPTIGRSRGLEHHHHHH”: “soluble”.
In the case of “MRYFALTDLTKPTAKFTTDAMELRQISNAYLNQAQAYLQKGLKQLKKDYKNAILYTPKTEYKRFLKWKQTFLQDLNQTQKRFFIVRAQHFSYVLLFNLLDEQVEAVIATFNNFLDEHRLEAQSKQFDLDTAVNELHDYFDQLQKNTAYSEDLPTHLTQKTEQLINARNTQLTNLLNKIATTKPPLNKQQRLLASFRNYHEHLFLKNEVKKVTWLNEPRAKKESVTPDEEH”, the “soluble on expression in E. coli” value was “soluble”.
Under “VVKQDLSDNQYIQKKPNEITSNELLLPLPNDKLLGDPKAPILMIEYASLTCYHCSLFHRNVFPKIKEKYIDTGKMLYIFRHFPLDYRGLKAAMLSHCYEKQEDYFNFNKAVFNSIDSWNYYNLSDLTLLQRIAALSNLKQDAFNQCINDKKIMDKIVNDKSLAINKLGITAVPIFFIKLNDDKSYIEHNKVKHGGYKELKYFTNVIDKLYGKAIVKLEHHHHHHHH” stands “soluble”.
Under “MAQVRQEIAREQEKAARLARNLAKYLSPQVWEMIFSGKKSVRLETQRKKLTVFFSDIRGFTELSEELEAEALTDLLNNYLNEMSKIALKYGGTIDKFVGDCVMVFFGDPSTQGAKKDAVAAVSMGIAMRKHMKVLRQQWRAQGITKPLEIRMGINTGYCTVGNFGADTRMDYTIIGREVNLASRLESASEAGEILISHETYSLIKDVIMCRDKGQIAVKGFSRPVQIYQVVDSRRDLGAAPSYVEHELPGFSMYLDTNNIQNYDKERVIQALQQAAER” stands “not soluble”; under “MSLSQNNPLRALLDKQDILLLDGAMATELEARGCNLADSLWSAKVLVENPELIREVHLDYYRAGAQCAITASYQATPAGFAARGLDEAQSKALIGKSVELARKAREAYLAENPQAGTLLVAGSVGPYGAYLADGSEYRGDYHCSVEAFQAFHRPRVEALLDAGADLLACETLPNFSEIEALAELLTAYPRARAWFSFTLRDSEHLSDGTPLRDVVALLAGYPQVVALGINCIALENTTAALQHLHGLTVLPLVVYPNSGEHYDAVSKTWHHHGEHCAQLADYLPQWQAAGARLIGGCCRTTPADIAALKARSEGGSHHHHHH”, “soluble”; under “KRGPSAVTVVTEQVETHEINQSLSLIGKLKAAESVVVASEVAGKVKQIAVKANQNVQQNQLLIQLDDDKAQAALVEAKAYLKDEERKLKEFQRLVKRNAITQTEIDAQKASVEIAQARLDAAKANLADLHITAPFSGTVGFIDFSRGKMVSAGTELLTLDDLSVMELDLQIPERYLSMLSVGMEVAAKTSAWGEQRFSGKVTGIDTRISAETLNLRVRIEFDNPENQLKPG”, “not soluble”.
On to “MEKISDLIECIAYEKNLPKEMISKVIQGCLLKMAQNELDPLARYLVVEENKQLQLIQLVEVLEDGDERLVNDPSKYISLSKAKEMDPSVKIKDELSYSLSLESMKQGAINRLFKDLQYQLEKALEDSHFEAFQKRLNSVLMGQVILVDHNQNTFIEIEQQFQGVLSMRHRIKGESFKVGDSIKAVLTQVKRTKKGLLLELSRTTPKMLEALLELEVPEIKDKEIEIIHCARIPGNRAKVSFFSHNARIDPIGAAVGVKGVRINAISNELNKENIDCIEYSNVPEIYITLALAPAKILSVEIKKIPIEELNAEEKESIQERFIVNNHLQKAKVRLLDIEKSKAIGKGGVNVCLASMLTGYHIEFETIPSVKENAENESEKETPKVGVEALESLFKNLEHHHHHH”, for which the “soluble on expression in E. coli” value was “soluble”.
Under “MGSDKIHHHHHHMVVLMTKPGTSDFVWNGIPLSMELNLWNIKEYSGSVAMKFDGEKITFDADIQNLSPKEPERYVLGYPEFYYGYKPWENHTAEGSKLPVPVSSMKSFSVEVSFDIHHEPSLPLNFAMETWLTREKYQTEASIGDVEIMVWFYFNNLTPGGEKIEEFTIPFVLNGESVEGTWELWLAEWGWDYLAFRLKDPVKKGRVKFDVRHFLDAAGKALSSSARVKDFEDLYFTVWEIGTEFGSPETKSAQFGWKFENFSIDLEVRE” stands “not soluble”.
Next, “MSLSLIKVGLVGIGAQMQENLLPSLLQMQDIRIVAACDSDLERARRVHRFISDIPVLDNVPAMLNQVPLDAVVMAGPPQLHFEMGLLAMSKGVNVFVEKPPCATLEELETLIDAARRSDVVSGVGMNFKFARPVRQLREMTQVDEFGETLHIQLNHYANKPRAPLWGLDSTLRSFLLAQAIHTIDLAITFGDGELRRVQSSVQRHDDALIVRADMAFSSGATASLLAGTSFPYFEFDMKLVSSSSTLVELDNLWNITLHEPEHATRPTGAAKRWRGAWQPGPLDSGYERSGYHGELHQFFQAIREHRRFEADFASLLPTYRVIEEICSADAVAQGLQNAHSRIRTGIESLSEGHHHHHH”: “soluble”.
Next, “MTYDLSRLTQDLPHETSEPSPKSASTLSLPPGESDQNGNTSSHEGVTPPRRRCTISRSSSIDSISGETLISEYFSSDELDKLSTALSEVTF”: “not soluble”.
For “MDLTLIIDNYDSFVYNIAQIVGELGSYPIVIRNDEISIKGIERIDPDRLIISPGPGTPEKREDIGVSLDVIKYLGKRTPILGVCLGHQAIGYAFGAKIRRARKVFHGKISNIILVNNSPLSLYYGIAKEFKATRYHSLVVDEVHRPLIVDAISAEDNEIMAIHHEEYPIYGVQFHPESVGTSLGYKILYNFLNRV”, the “soluble on expression in E. coli” value was “soluble”.
As for “MTVKAVFFDIDGTLLNDRKNIQKTTQKAIQQLKKQGIMVGLATGRGPGFVQPFLENFGLDFAVTYNGQYILTRDKVLYQNQLPKSMIYKVIRYANEKKREISLGTASGLAGSRIIDMGTSPFGQVISSFVPKSWARTVEGSFKHLIRRIKPQSFRNLVTIMREPIYQVVLVASQAETKKIQEKFPHIKITRSSPYSLDLISVDQSKIKGIERLGEMFGFDLSEVMAFGDSDNDLEMLSGVGIGIAMGNAETVVKDGAHFTTDSNNNDGISKALAHYGLIH”, the “soluble on expression in E. coli” value is on record as “not soluble”.
Under “GSHMPTAIESCMVKFELSSSKWHMTSPKPHCVNTTSDGKLKILQSGTYLIYGQVIPVDKKYIKDNAPFVVQIYKKNDVLQTLMNDFQILPIGGVYELHAGDNIYLKFNSKDHIQKTNTYWGIILMPDLPFIS” stands “soluble”.
Next, “MNIFYEESGQFKIAAIIQKNDATYQVDTPHGKRTKVKANNVFAEFDGDMAAFLENAQAQAADIDTDLLWEVCGEEEFTAEAIAEEYYGHAPTKTELAATLIALYAAPMYFYKKAKGVFKAAPEETLKQALAAIERKKQQDAQIDAWAEALKRGEMPSEIAADLKTILHAPDKQSLTYKAFTKAADALKTSAYELAKKTGGITSIPQYLQDGFEIKYFPKGTGFPDLALPEMPDLPKADVTAFSIDDESTTEVDDALSLTDLDNGTKRVGIHIAAPSLAVKPGDKMEKNIMERLSTVYFPGGKITMLPENWIAAFSLDAGAHRPAVSIYFDVDGEFNVGAPTCKIEAVNIATNLRIQAIEPHFNAETGLDEAGEMMFAHHQDLIWFYQFATALQKARGKYEPDRAPQYDYSIELDEEGKVSVVRRERGSPIDTLVSEMMILANSTWAQMLHDNDLPGLFRVQPTGKVRMSTKSEPHIGMGVQHYGWFTSPLRRAADYINQKQLISLIDDTAEPLYQNSDAELFAALRDFDAAYTAYADFQRQMEAYWSLVYLQQQGTSELTATILKEDLVRIEGLPLVTRATGIPFDALPKSQALFKITELDAEKQFVSLNYIKAVAPAGTTAGNAV”: “not soluble”.
Under “MGHHHHHHSHAAPGAQHFLYEVPPWVMCRFYKVMDALEPADWCQFAALIVRDQTELRLCERSGQRTASVLWPWINRNARVADLVHILTHLQLLRARDIITAWHPPAPLP” stands “not soluble”; under “YGKQRKASVIGAINTVSMNELKMPVAKLSSGLAGQLAGIVVMQRSGEPGAGADFWIRGINTFGAGNKPLVLVDGVERSMDLVDVEDIASFSILKDATATALYGVRGANGIVLITTKRGTES”, “not soluble”.
Turning to “MGSDKIHHHHHHMKKLYILAIAIAVTTFSCKKNKEDEPAPSGSEQAKVVENYANIVYATYDDALITAKNLRAKAADFVASPSEAGLEEVRAAYIASRTPYIQSEAFRFYSGPIDQDLGGGLTIESSINSWPLEEVYIDYVVGDANAGIINDVAHFPTIDKNVILENNQKEGAGENSVSSGYHAVEFLLWGQDLSETGPGDRKYTDYLVNSDDATNLNQARRGQYLLACIDLIIDNLQTLKEAWKSGNASNYRAGFIADPKGSIGNFLKGVIGYADDELSVERMQVALDTEGDAERQEQEQSCFSDQTYNDIILGQKGIKNVYVGEYVRIDGTIVSGMSVSDLVKAADPKLDSTVRAKIYDTDIKVAAIHAPFDNEILTANTAGTIRVQNAINALHVEAAQYKNAANKIGYLY”, the “soluble on expression in E. coli” value is “not soluble”.
Regarding “PGAPSTVRISKNVDGIHLSWEPPTSPSGNILEYSAYLAIRTAQMQDNPSQLVFMRIYCGLKTSCTVTAGQLANAHIDYTSRPAIVFRISAKNEKGYGPATQIRWLQGNSK”, the “soluble on expression in E. coli” value is on record as “soluble”.
For the sequence “MSSHFVDWLIAHGYEQDAFDRPDVGPAGSFGGKTRSGDPVEKEPVIFIHGSGDTALFTQQPLATGFSRSIQYFLEQNYTEAELYATTWGDTWGSGSMLDTYSTIHTCGNLIYLRRFLEAVIGYTGAKKVDIIAHSVGVPLMRKVVKGGTLIGTDGNCTLGPPLGAKVDTFLGIAGPNFGLCVCQLAQTVPAWCNALDGLYPGYTCQDQLWCGYTSGSCKQENYSNLLQKTNDDPNREGDHVYAMWSDVDEVLLNRGMVWGKPTARIPGMNGRWISDRNGHVAMKDLTELRQFEAIVHHSI”, the “soluble on expression in E. coli” value is “not soluble”.

The values are drawn from the DeepSol protein solubility set.
